Test results published in patent publication US20060073152A1 (Genentech, published 2006).
No end group written: not given here.

Columns and labels:
human serum albumin [1] = molecular target: T1, human serum albumin (human, UniProt P02768 25-609); test: phage binding
T1 construct: also called Human SA; HuSA

rabbit serum albumin [2] = molecular target: T2, rabbit serum albumin (rabbit, UniProt P49065 25-608); test: phage binding
T2 construct: also called Rabbit SA; BuSA

rat serum albumin [3] = molecular target: T3, rat serum albumin (rat, UniProt P02770 25-608); test: phage binding
T3 construct: also called Rat SA; RSA
T3 sequence (P02770 25-608 limits assumed): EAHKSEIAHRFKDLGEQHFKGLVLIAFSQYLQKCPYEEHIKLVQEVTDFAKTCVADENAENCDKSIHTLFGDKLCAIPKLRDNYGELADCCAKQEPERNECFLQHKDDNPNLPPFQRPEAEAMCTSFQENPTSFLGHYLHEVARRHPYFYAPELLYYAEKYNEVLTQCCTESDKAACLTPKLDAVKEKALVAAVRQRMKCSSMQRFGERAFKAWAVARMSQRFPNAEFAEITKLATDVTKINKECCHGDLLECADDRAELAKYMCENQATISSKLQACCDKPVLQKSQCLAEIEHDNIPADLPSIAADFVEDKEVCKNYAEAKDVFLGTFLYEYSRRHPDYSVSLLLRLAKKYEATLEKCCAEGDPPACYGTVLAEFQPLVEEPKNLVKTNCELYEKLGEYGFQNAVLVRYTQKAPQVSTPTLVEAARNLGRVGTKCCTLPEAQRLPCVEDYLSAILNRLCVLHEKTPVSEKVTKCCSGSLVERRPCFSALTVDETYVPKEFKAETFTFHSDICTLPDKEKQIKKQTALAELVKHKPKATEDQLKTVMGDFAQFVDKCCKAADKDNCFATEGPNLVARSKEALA

rabbit serum albumin [4] = molecular target: T2, rabbit serum albumin; test: peptide competition for albumin
rat serum albumin [5] = molecular target: T3, rat serum albumin; test: peptide competition for albumin
mouse serum albumin [6] = molecular target: T4, mouse serum albumin (mouse, UniProt P07724 25-608); test: peptide competition for albumin
T4 construct: also called Mouse SA; MuSA
T4 sequence (P07724 25-608 limits assumed): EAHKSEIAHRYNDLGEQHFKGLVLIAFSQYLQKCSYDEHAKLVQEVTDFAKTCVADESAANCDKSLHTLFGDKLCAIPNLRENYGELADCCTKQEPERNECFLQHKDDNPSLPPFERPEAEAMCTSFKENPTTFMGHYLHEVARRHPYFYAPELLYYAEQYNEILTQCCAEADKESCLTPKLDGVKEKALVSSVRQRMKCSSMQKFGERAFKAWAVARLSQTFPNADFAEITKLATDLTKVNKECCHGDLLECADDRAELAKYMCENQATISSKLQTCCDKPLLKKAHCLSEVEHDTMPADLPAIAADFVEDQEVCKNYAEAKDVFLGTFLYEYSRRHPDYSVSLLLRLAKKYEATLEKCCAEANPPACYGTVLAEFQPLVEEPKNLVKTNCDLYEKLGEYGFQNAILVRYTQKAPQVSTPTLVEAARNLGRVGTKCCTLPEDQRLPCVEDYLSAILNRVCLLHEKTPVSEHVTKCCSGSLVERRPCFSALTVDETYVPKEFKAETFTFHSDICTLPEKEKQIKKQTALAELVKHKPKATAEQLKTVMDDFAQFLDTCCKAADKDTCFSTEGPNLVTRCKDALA

human serum albumin [7] = molecular target: T1, human serum albumin; test: SPR (BIAcore), albumin on the chip
rabbit serum albumin [8] = molecular target: T2, rabbit serum albumin; test: SPR (BIAcore), albumin on the chip
rat serum albumin [9] = molecular target: T3, rat serum albumin; test: SPR (BIAcore), albumin on the chip
mouse serum albumin [10] = molecular target: T4, mouse serum albumin; test: SA08 peptide competition
rabbit serum albumin [11] = molecular target: T2, rabbit serum albumin; test: peptide competition; head prints RSA, read as rabbit
rabbit serum albumin [12] = molecular target: T2, rabbit serum albumin; test: SA08 peptide competition

T2 sequence (P49065 25-608 limits assumed): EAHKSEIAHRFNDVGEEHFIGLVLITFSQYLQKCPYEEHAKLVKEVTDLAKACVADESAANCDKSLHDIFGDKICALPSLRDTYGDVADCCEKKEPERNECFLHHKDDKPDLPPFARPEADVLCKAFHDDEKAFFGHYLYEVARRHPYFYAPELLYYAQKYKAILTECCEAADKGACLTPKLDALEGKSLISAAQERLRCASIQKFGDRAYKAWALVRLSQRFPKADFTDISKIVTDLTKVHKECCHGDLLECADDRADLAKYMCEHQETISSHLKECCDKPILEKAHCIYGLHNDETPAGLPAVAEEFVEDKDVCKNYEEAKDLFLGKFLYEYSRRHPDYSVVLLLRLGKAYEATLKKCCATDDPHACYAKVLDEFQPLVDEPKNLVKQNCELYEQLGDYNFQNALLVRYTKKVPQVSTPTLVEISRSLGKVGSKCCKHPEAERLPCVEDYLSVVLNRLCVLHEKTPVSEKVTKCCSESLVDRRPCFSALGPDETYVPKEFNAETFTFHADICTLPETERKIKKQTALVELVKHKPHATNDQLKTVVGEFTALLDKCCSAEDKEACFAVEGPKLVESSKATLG

QRQMVDFCLPQWGCLWGDGF (on phage; also called Library RB) [RB]
binding result (human serum albumin [1]): binds
binding result (rabbit serum albumin [2]): binds
binding result (rat serum albumin [3]): binds

Ac-QGLIGDICLPRWGCLWGDSVK-NH2 (cysteine pairing not given here, free peptide) [SA08]
IC50 (rabbit serum albumin [4]): 63 nM
IC50 (rat serum albumin [5]): 68 nM
IC50 (mouse serum albumin [6]): 10 nM
Kd (human serum albumin [7]): 858 nM
Kd (rabbit serum albumin [8]): 108 nM
Kd (rat serum albumin [9]): 158 nM
IC50 (mouse serum albumin [10]): 12 nM

Ac-RLIEDICLPRWGCLWEDD-NH2 (cysteine pairing not given here, free peptide) [SA21]
IC50 (rabbit serum albumin [11]): 270 nM
Kd (rabbit serum albumin [8]): 320 nM
IC50 (rabbit serum albumin [12]): 270 nM
IC50 (mouse serum albumin [10]): 7 nM

B1: SA15 (peptide)
peptide: GEWWEDICLPRWGCLWEEED-NH2
modifications: not fully specified (bridges); printed as GEWWEDICLPRWGCLWEEED-NH2; cysteine pairing not given here
notes: free peptide
Kd (human serum albumin [7]): 878 nM
Kd (rabbit serum albumin [8]): 65 nM
Kd (rat serum albumin [9]): 150 nM
IC50 (rabbit serum albumin [12]): 13 nM
IC50 (mouse serum albumin [10]): 5 nM
